Test system: MDA-MB-231 cells
Test: Cancer cell proliferative assay (anti-proliferative activity, manual cell counting)
Type: cell-based, human
Method: FIGS. 3A-3B are bar graphs showing the Emax (FIG. 3A) and EC50 (FIG. 3B) of adiponectin or peptides with no glycans (hAdn-WM), or mono-, di-, tri- and tetra-glycans. The glyACD and adiponectin elicit synergistic anti-proliferative activity in human MDA-MB-231 cells. After serum starvation for 24 hours, MDA-MB-231 cells were treated with different concentrations of hAdn-WM, glyACD, full-length human adiponectin, or their combinations. After incubation for another 24 hours, cells were harvested for manual counting. FIG. 3C is a graph showing the inhibition rate on MDA-MB-231 cells of the indicated peptides. MDA-MB-231 cells were treated with different concentrations of adiponectin in the absence or presence of low (2.5 μg/ml) or high (20 μg/ml) doses of hAdn-WM or hAdn-WM656877101. FIG. 3D is a heatmap showing the percentage inhibition on cell growth. MDA-MB-231 cells were treated with 0, 0.22, 0.33, 0.49, 0.74, 1.11, 1.67, 2.5 μg/ml adiponectin in combination with 0, 0.3125, 0.625, 1.25, 2.5, 5, 10, 20 μg/ml hAdn-WM or hAdn-WM656877101. The percentage inhibition on cell growth was calculated and indicated by different intensity of the blue color. Data are presented as mean±SEM (n=6). *, P<0.05 vs full-length human adiponectin; ♦, P<0.05 vs peptide with no glycans (hAdn-WM); ▴, P<0.05 vs peptide with tetra-glycans (hAdn-WM656877101).
MDA-MB-231 cells were cultured in DMEM supplemented with 10% FBS and 1% penicillin-streptomycin-fungisone at 37° C. and under 5% CO2 95% humidified air. After harvesting, cells were seeded at a density of 3000 cells per well in 96-well plates and then cultured for 24 hours. After fasting in DMEM with 0.5% FBS for 24 hours, cells were subsequently stimulated with 2.5% FBS in the presence of peptides, human adiponectin or other drugs. The viable cell numbers at 24 hours at different doses were manually counted by mixing with trypan blue dye for analysis. The maximum inhibition rate (Emax) and half maximal effective concentration (EC50) were used to evaluate the anti-tumor activity of peptides and adiponectin. […]

[1] = 24 hours incubation, viable cells manually counted

B1: hAdiponectin: full-length human adiponectin, circulating glycoprotein hormone of 244 amino acids (SEQ ID NO:1) (protein, listed as Homo sapiens)
chain: MLLLGAVLLLLALPGHDQETTTQGPGVLLPLPKGACTGWMAGIPGHPGHNGAPGRDGRDGTPGEKGEKGDPGLIGPKGDIGETGVPGAEGPRGFPGIQGRKGEPGEGAYVYRSAFSVGLETYVTIPNMPIRFTKIFYNQQNHYDGSTGKFHCNIPGLYYFAYHITVYMKDVKVSLFKKDKAMLFTYDQYQENNVDQASGSVLLHLEVGDQVWLQVYGEGERNGLYADNDNDSTFTGFLLYHDTN
- EC50 [1]: 0.33 ± 0.11 mg/L
- Emax (%) maximum inhibition rate [1]: 69.3 ± 3.34%
- Emax of human adiponectin (adiponectin alone (absence of peptide), FIG. 3C): 66.7±4.29%

Source: patent publication US20240209029A1, “ADIPONECTIN GLYCOPEPTIDES AND COMPOSITIONS AND METHODS OF USE THEREOF” (The University of Hong Kong, priority 2021, published 2024)
